The values that follow come from the RNAGym collection of RNA variant scans (doi:10.1073/pnas.2313332121).

To fix the notation:
B1: TPR 5TU (parent)
chain: GGAUCUUCUCGAUCUAACAAAAAAGACAAAUCUGCCACAAAGCUUGAGAGCAUCUUCGGAUGCAGAGGCGGCAGCCUUCGGUGGCGCGAUAGCGCCAACGUUCUCAACUAUGACACGCAAAACGCGUGCUCCGUUGAAUGGAGUUUAUCAUG

Variants at the floor of the assay were thinned out.

The variants in the data set derive from B1. Nature of the data set: polymerase ribozyme fitness, log enrichment relative to wild type (log ratio); higher = more active; in vitro selection for triplet polymerase activity. The essentials:
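Only genotypes with ≥10 input reads and ≥1 read per output were kept after Illumina sequencing of input and output libraries. These libraries were PCR-built, transcribed mutants of each subunit of a heterodimeric triplet polymerase ribozyme, each put through one triplicate in vitro selection round with frozen incubation at −7 °C, gel excision of extended constructs, streptavidin-bead capture and RT-PCR. Fitness is a logarithmic ratio of genotype enrichment to wild-type enrichment, from inverse-variance-weighted replicate averages, with the logarithm in base 2.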
Take U9G C10G A17G A22G A23U G50A A73G: the “polymerase ribozyme fitness (log ratio)” value is at most -4.2.
With U9C A29U U31C U44A C75A C85A G141A the figure was at most -4.2.
With C10G A19G G34A A52C C54G the figure was at most -4.2; with U9G U15C C87G A113G A142G, at most -4.2; with U9A C76U C85U C132U G133C, at most -4.2.
Regarding U9G A19C U55A, the “polymerase ribozyme fitness (log ratio)” value is at most -4.2.
Turning to C10G A20U C35A C85G A142C, the “polymerase ribozyme fitness (log ratio)” value is at most -4.2.
With U9G A16C A30C G34A G58U C93G C105A A110G C118U C149U, the “polymerase ribozyme fitness (log ratio)” value was -4.17.
Next, U9A C125G: at most -4.2.
With U9G C85A C103A C118G U134A the figure was at most -4.2; with C10G A91G A97G C108A C118G, at most -4.2; with U9G C85A, -3.76.
With C8U U15A G58U C69A C85A G124C, the “polymerase ribozyme fitness (log ratio)” value was -3.61.
With U9C A28C C36A C87U C116U, the “polymerase ribozyme fitness (log ratio)” value is at most -4.2.
Next, U9C C76U: -2.74; U9A U15A C93U C103G: at most -4.2.
With U9G A47C C57A A66C C87A A89U A120U A121U C123A C125U U144A the figure was at most -4.2; with U9C A16U A21G G70C G92U G143U U145G, at most -4.2.
For C10A G50A A60G G86A G133C, the “polymerase ribozyme fitness (log ratio)” value is at most -4.2.
With U9G C32U C38U A49C G58A A60U C87G C95U G133U A142U the figure was at most -4.2; with C10A A106G G126U, at most -4.2.
Next, C8U G58C: -2.7; U9G G34U C85A U139A: at most -4.2.
With C10G C27A A39U C75A G92C A97U A121U the figure was at most -4.2; with U9G U77C C85A C108U A120C G141C, at most -4.2; with U9A U13G G42U U61A A91U A106G A142C, at most -4.2.
Regarding C10A U56G C57G G59A C79U G83C C99G, the “polymerase ribozyme fitness (log ratio)” value is at most -4.2.
Turning to C8U G141C, the “polymerase ribozyme fitness (log ratio)” value is -2.78.
With C10A A21U G84A A97U A113G the figure was at most -4.2; with U9C A47C A60G G84C C93A C105G A113U U127C, at most -4.2.
With C8U G59C, the “polymerase ribozyme fitness (log ratio)” value is -2.99.
C10G A73U G128U: the “polymerase ribozyme fitness (log ratio)” value is at most -4.2.
Next, U9C G25C U56A C93U C99G: at most -4.2.
For the variant U9G C51G G84A G141C, the “polymerase ribozyme fitness (log ratio)” value was at most -4.2.
Next, U9G A20U G84A U102C A115G: at most -4.2; C10G A21U A22U U55A G59C A142C: at most -4.2.
Next, C10A A16G C32G G50A G133C: at most -4.2; C8U U56A: -3.09; U9G A73U C87U U102A C105G C108A: at most -4.2.
With C10G A16U C54U U56A G59A G88C C105G A110G A119U C123A U145G U148C the figure was at most -4.2; with U9A A41U G74A A89G C132U, at most -4.2.
With C10A A91G C93U U144G, the “polymerase ribozyme fitness (log ratio)” value is at most -4.2.
U9G A24U U33C G143C A147C: the “polymerase ribozyme fitness (log ratio)” value is at most -4.2.
Next, U9C A12U C27G G48A G74A G88A: at most -4.2; U9A A12G C14U A23U A40C C76G G86C U90C C118A C131G: at most -4.2; C10A C85G C125A: at most -4.2.
With U9G C27A C96A the figure was at most -4.2.
C10A G34U A40U C57U U78G C79U G84C C85A U104A A120C: the “polymerase ribozyme fitness (log ratio)” value is at most -4.2.
Take C10G A41U: the “polymerase ribozyme fitness (log ratio)” value is -4.05.
For the variant C10A C95U, the “polymerase ribozyme fitness (log ratio)” value is -3.57.
U9G A23C U56A A73U G86C: the “polymerase ribozyme fitness (log ratio)” value was at most -4.2.
Turning to C8U U9G C18G U33G U55A C95U C105U G112U C132U A147U, the “polymerase ribozyme fitness (log ratio)” value is at most -4.2.
With U9C A22C C54U G71U G84A C95A A98U C108A C114U A115C the figure was at most -4.2; with C10A C69U, at most -4.2; with U9G, -2.82.
Next, U9C: -1.27; U9A: -2.7; U9C U33G A52C C93G A110U: at most -4.2.
For C10A A12G A22G U56A C85G, the “polymerase ribozyme fitness (log ratio)” value was at most -4.2.
U9C U15G C54A G67C G84A G117A: the “polymerase ribozyme fitness (log ratio)” value was at most -4.2.
In the case of C10G A29U C95U C108A G117A G143C, the “polymerase ribozyme fitness (log ratio)” value was at most -4.2.
Next, C10G A47U C54A C72U G81A G92C G133U U135G: at most -4.2; C8U U15G A49G G59A A60G G70A G86C C93U A106G U135C: at most -4.2.
Next, U9C A47U: -3.94.
Next, U9A U13G C32G C51G G70U U127G: at most -4.2.
As to C10A A12G A23C U55A, the “polymerase ribozyme fitness (log ratio)” value was at most -4.2.
In the case of U9G A49U C85U, the “polymerase ribozyme fitness (log ratio)” value is at most -4.2.
Next, U9C A30U C35A U82A A91U C93A G140U G143A U151G: at most -4.2; U9C U53A G58U A60C A66C A147C: at most -4.2.
Regarding C8U G88U C93U, the “polymerase ribozyme fitness (log ratio)” value is -4.14.
On to C10A C85U, for which the “polymerase ribozyme fitness (log ratio)” value was -4.01.
Take C10A A12U A41G C96A A107C C114A: the “polymerase ribozyme fitness (log ratio)” value was at most -4.2.
On to U9A A23C U31G A73U C93G A106G G117A G133A A150G, for which the “polymerase ribozyme fitness (log ratio)” value is at most -4.2.
U9C A23U G58U A73U C79A G83C G86A A107G G141C: the “polymerase ribozyme fitness (log ratio)” value is at most -4.2.
With U9C A22G A23C G25C G83C the figure was at most -4.2; with C8U C87U, -2.59; with U9G C27G A28C A47U G70A A91C, at most -4.2.
Consider U9A A23U U77A, for which the “polymerase ribozyme fitness (log ratio)” value was at most -4.2.
With U9G C96U the figure was -3.76; with C10A U31G C35G G42C C69U G92A C95G G100A G143A, -3.74.
Next, C8U G81U C95U: at most -4.2.
As to C10A A19C A29U C36U C57U G58A A66C G67C U82G G84U U109A, the “polymerase ribozyme fitness (log ratio)” value was at most -4.2.
With U9C A12C C57U C63U G74C A119G U146G the figure was at most -4.2.
